Literature values in article PMC6601554.

Target: Mouse neonatal Fc receptor (FcRn) (UniProt Q61559)
Test: not stated in this article

UniProt Q61559, sequence (Q61559 whole entry): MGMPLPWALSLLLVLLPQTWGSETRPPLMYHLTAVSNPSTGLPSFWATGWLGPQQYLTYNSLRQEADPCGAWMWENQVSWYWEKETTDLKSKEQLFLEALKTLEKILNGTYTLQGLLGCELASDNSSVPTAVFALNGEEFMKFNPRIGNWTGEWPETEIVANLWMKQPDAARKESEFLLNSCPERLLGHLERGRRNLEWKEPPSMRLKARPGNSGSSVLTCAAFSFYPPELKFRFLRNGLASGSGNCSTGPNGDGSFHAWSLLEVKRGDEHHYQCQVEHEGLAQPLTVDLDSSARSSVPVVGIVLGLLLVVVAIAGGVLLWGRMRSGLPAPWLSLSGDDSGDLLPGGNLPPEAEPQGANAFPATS

Kd (pH 6.0): 1.2 nM
Kd (pH 7.2): 7.4 nM
Substance: MST-HN human IgG1 (Abdeg; mutated humanized anti-hen egg lysozyme HuLys10) M252Y;S254T;T256E;H433K;N434F
